Results from PMC6501848 (Nature cell biology, 2019).
Blank lines part the entries; values can stand above or below the binder they belong to.

Legend:
INF2-Nterm = INF2-Nterm (human, UniProt Q27J81 1-420); assay: fluorescence polarisation
AUC = target: the molecule itself; assay: AUC
[1] = target: chicken skeletal muscle actin (chicken, UniProt P68139 1-377); assay: pull-down
[2] = target: fluorescently-labeled rabbit skeletal muscle actin (TMR-actin) (rabbit, UniProt P68135 1-377, TAMRA label (TAMRA NHS ester)); assay: pull-down
[3] = target: rabbit skeletal muscle actin (rabbit, UniProt P68135 1-377); assay: pull-down

Chain of INF2-Nterm (Q27J81 1-420): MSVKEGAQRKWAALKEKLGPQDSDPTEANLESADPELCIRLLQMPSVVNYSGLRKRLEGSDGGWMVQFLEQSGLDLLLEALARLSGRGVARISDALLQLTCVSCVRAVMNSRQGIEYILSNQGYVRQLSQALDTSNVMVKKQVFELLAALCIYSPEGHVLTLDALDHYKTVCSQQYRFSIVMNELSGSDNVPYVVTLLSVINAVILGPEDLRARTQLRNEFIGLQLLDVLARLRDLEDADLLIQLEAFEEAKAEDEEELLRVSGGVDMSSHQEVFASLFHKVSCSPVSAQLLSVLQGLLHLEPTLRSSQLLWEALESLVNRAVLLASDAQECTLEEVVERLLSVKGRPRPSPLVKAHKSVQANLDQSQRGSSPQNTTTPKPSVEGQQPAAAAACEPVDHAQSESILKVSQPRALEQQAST

- Kd (INF2-Nterm): ~28 µM
B1: INF2-Cterm labeled with tetramethylrhodamine (domain or fragment)
chain: not shown
modifications: tetramethylrhodamine-succinimide (TMR) label

- binding result [1]: binds
- binding result [2]: binds
- binding result [3]: binds
B2: human CAP2 with C-terminal GFP and Strep-tag II (natural protein)
chain: MANMQGLVERLERAVSRLESLSAESHRPPGNCGEVNGVIAGVAPSVEAFDKLMDSMVAEFLKNSRILAGDVETHAEMVHSAFQAQRAFLLMASQYQQPHENDVAALLKPISEKIQEIQTFRERNRGSNMFNHLSAVSESIPALGWIAVSPKPGPYVKEMNDAATFYTNRVLKDYKHSDLRHVDWVKSYLNIWSELQAYIKEHHTTGLTWSKTGPVASTVSAFSVLSSGPGLPPPPPPLPPPGPPPLFENEGKKEESSPSRSALFAQLNQGEAITKGLRHVTDDQKTYKNPSLRAQGGQTQSPTKSHTPSPTSPKSYPSQKHAPVLELEGKKWRVEYQEDRNDLVISETELKQVAYIFKCEKSTIQIKGKVNSIIIDNCKKLGLVFDNVVGIVEVINSQDIQIQVMGRVPTISINKTEGCHIYLSEDALDCEIVSAKSSEMNILIPQDGDYREFPIPEQFKTAWDGSKLITEPAEIMA
- stoichiometry N (AUC): 6
